What all share (experiment): cell-based or functional assay
Assay [1] has as its target human glucagon-like peptide-1 (GLP-1) receptor (human, UniProt P43220 24-463).
For assay [2], the target named is human glucagon receptor (human, UniProt P47871 26-477).
For assay [3], the target named is T1, human glucose-dependent insulinotropic polypeptide (GIP) receptor (human, UniProt P48546 22-466).
T1 sequence (looked up): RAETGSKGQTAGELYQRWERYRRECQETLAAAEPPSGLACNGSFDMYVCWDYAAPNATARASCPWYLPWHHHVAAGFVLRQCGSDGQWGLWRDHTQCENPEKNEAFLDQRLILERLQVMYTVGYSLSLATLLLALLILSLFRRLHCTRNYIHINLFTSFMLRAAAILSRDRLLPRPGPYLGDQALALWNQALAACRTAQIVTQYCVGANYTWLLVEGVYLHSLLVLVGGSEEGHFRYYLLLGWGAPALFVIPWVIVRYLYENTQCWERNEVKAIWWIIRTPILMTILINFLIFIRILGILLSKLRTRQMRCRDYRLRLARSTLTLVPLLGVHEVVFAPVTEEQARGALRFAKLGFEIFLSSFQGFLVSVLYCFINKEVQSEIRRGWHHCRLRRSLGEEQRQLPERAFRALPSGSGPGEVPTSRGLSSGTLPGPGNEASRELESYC

Residue numbers refer to the chain shown, from its start. *1 amine or outer side, *2 acyl side, *3 side chain or, on linkers, in order; H or OH if unused. Where no end group is shown, it is not given here. Side-chain parts run from the residue outwards. [ ]: non-standard residue; d: D form. The star is where a group is joined. αMePhe(2-F) = C[C@](N)(Cc1ccccc1F)C(=O)O; γGlu = O=C(O)[C@H](CCC(=O)[*:2])N[*:1]; C14 diacid = O=C(O)CCCCCCCCCCCCC(=O)*; αMeY = C[C@](N)(Cc1ccc(O)cc1)C(=O)O; αMeL = CC(C)C[C@](C)(N)C(=O)O; Nle = CCCC[C@H](N)C(=O)O; Orn = NCCC[C@H](N)C(=O)O; AEEA = NCCOCCOCC(=O)O; Aib = CC(C)(N)C(=O)O

B1: Example 284 (peptide)
peptide: YXEGTXTSDXSIXLDXIAQXKFIXXLIKGGPSSGAPPPS
modifications: Aib2, αMeF(2F)6, 2Nal10, αMeL13, Orn16, Aib20, K21(Z), D-Glu24, αMeY25, K28(Z), C-terminal NH2; Z = AEEA2-(γ-Glu)-(10-(4-carboxyphenoxy)decanoyl)
In the case of B1, the “cAMP EC50” value is 0.505 nM in assay [1], more than 9950 nM in assay [2] and 0.0389 nM in assay [3].

B2: Example 287 (peptide)
peptide: B1 peptide
modifications: Aib2, αMeF(2F)6, 4Pal10, αMeL13, Orn16, Aib20, K21(Z), D-Glu24, αMeY25, K28(Z), C-terminal NH2; Z = AEEA2-(γ-Glu)-(11-(4-carboxyphenoxy)undecanoyl)
On to B2, for which the “cAMP EC50” value in assay [1] is 0.563 nM; in assay [2] it was more than 9950 nM; in assay [3], 0.0189 nM.

B3: Example 283 (peptide)
peptide: B1 peptide with K21E, X24K
modifications: Aib2, αMeF(2F)6, 2Nal10, αMeL13, Orn16, Aib20, K24(Z), αMeY25, K28(Z), C-terminal NH2; Z = AEEA2-(γ-Glu)-(10-(4-carboxyphenoxy)decanoyl)
Turning to B3, the “cAMP EC50” value in assay [1] was 1.14 nM; in assay [2], more than 9950 nM; in assay [3], 0.073 nM.

B4: Example 270 (peptide)
peptide: B1 peptide with K21E, X24K
modifications: Aib2, αMeF(2F)6, hTyr10, αMeL13, Orn16, Aib20, K24(Z), αMeY25, K28(Z), C-terminal NH2; Z = AEEA2-(γ-Glu)-CO-(CH2)12-CO2H
Consider B4, for which the “cAMP EC50” value is 0.551 nM in assay [1], more than 9950 nM in assay [2] and 0.0567 nM in assay [3].

B5: Example 271 (peptide)
peptide: B1 peptide with I17K, K28E
modifications: Aib2, αMeF(2F)6, Nle10, αMeL13, Orn16, K17(Z), Aib20, K21(Z), D-Glu24, αMeY25, C-terminal NH2; Z = AEEA2-CO-(CH2)12-CO2H
For the molecule B5, the “cAMP EC50” value is 0.494 nM in assay [1], more than 9950 nM in assay [2] and 0.0186 nM in assay [3].

B6: Example 280 (peptide)
peptide: B1 peptide
modifications: Aib2, αMeF(2F)6, OMeY10, αMeL13, Orn16, Aib20, K21(Z), D-Glu24, αMeY25, K28(Z), C-terminal NH2; Z = AEEA2-(γ-Glu)-(10-(4-carboxyphenoxy)decanoyl)
Consider B6, for which the results for the “cAMP EC50” value in assay [1], in assay [2] and in assay [3] were 0.346 nM, more than 9950 nM and 0.0229 nM, respectively.

B7: Example 261 (peptide)
peptide: YXEGTXTSDXSIXLDXKAQXEFIXXLIEGGPSSGAPPPSK
modifications: Aib2, αMeF(2F)6, OMeY10, αMeL13, Orn16, K17(Z), Aib20, D-Glu24, αMeY25, K40(Z), C-terminal NH2; Z = AEEA2-(γ-Glu)-CO-(CH2)12-CO2H
In the case of B7, the “cAMP EC50” value in assay [1] is 0.531 nM; in assay [2], more than 9950 nM; in assay [3], 0.025 nM.

B8: Example 273 (peptide)
peptide: B7 peptide
modifications: Aib2, αMeF(2F)6, 4Pal10, αMeL13, Orn16, K17(Z), Aib20, D-Glu24, αMeY25, K40(Z), C-terminal NH2; Z = AEEA2-(γ-Glu)-(10-(4-carboxyphenoxy)decanoyl)
Turning to B8, the figures for the “cAMP EC50” value in assay [1], in assay [2] and in assay [3] were 2.08 nM, more than 9950 nM and 0.0166 nM, respectively.

B9: Example 276 (peptide)
peptide: B7 peptide with K17I, E21K
modifications: Aib2, αMeF(2F)6, 4Pal10, αMeL13, Orn16, Aib20, K21(Z), D-Glu24, αMeY25, K40(Z), C-terminal NH2; Z = AEEA2-(γ-Glu)-(10-(4-carboxyphenoxy)decanoyl)
As to B9, the figures for the “cAMP EC50” value in assay [1], in assay [2] and in assay [3] were 0.49 nM, more than 9950 nM and 0.0134 nM, respectively.

B10: Example 264 (peptide)
peptide: B7 peptide with K17I, E21K
modifications: Aib2, αMeF(2F)6, OMeY10, αMeL13, Orn16, Aib20, K21(Z), D-Glu24, αMeY25, K40(Z), C-terminal NH2; Z = AEEA2-(γ-Glu)-CO-(CH2)12-CO2H
With B10, the “cAMP EC50” value in assay [1] was 0.413 nM; in assay [2], more than 9950 nM; in assay [3], 0.0208 nM. In addition, in assay [3], the “cAMP Emax” value came to 114%.

B11: Example 268 (peptide)
peptide: B7 peptide with K17I, E21K
modifications: Aib2, αMeF(2F)6, OMeY10, αMeL13, Orn16, Aib20, K21(Z), D-Glu24, αMeY25, K40(Z), C-terminal NH2; Z = AEEA2-CO-(CH2)12-CO2H
Consider B11, for which the entries for the “cAMP EC50” value in assay [1], in assay [2] and in assay [3] were 0.613 nM, more than 9950 nM and 0.0265 nM, respectively.

B12: Example 285 (peptide)
peptide: B7 peptide
modifications: Aib2, αMeF(2F)6, 4Pal10, αMeL13, Orn16, K17(Z), Aib20, D-Glu24, αMeY25, K40(Z), C-terminal NH2; Z = AEEA2-(γ-Glu)-(11-(4-carboxyphenoxy)undecanoyl)
For B12, the results for the “cAMP EC50” value in assay [1], in assay [2] and in assay [3] were 1.21 nM, more than 9950 nM and 0.0115 nM, respectively.

B13: Example 267 (peptide)
peptide: B7 peptide
modifications: Aib2, αMeF(2F)6, OMeY10, αMeL13, Orn16, K17(Z), Aib20, D-Glu24, αMeY25, K40(Z), C-terminal NH2; Z = AEEA2-CO-(CH2)12-CO2H
B13: the entries for the “cAMP EC50” value in assay [1], in assay [2] and in assay [3] were 0.271 nM, more than 9950 nM and 0.0162 nM, respectively.

B14: Example 288 (peptide)
peptide: B7 peptide with K17I, E21K
modifications: Aib2, αMeF(2F)6, 4Pal10, αMeL13, Orn16, Aib20, K21(Z), D-Glu24, αMeY25, K40(Z), C-terminal NH2; Z = AEEA2-(γ-Glu)-(11-(4-carboxyphenoxy)undecanoyl)
As for B14, the “cAMP EC50” value in assay [1] was 0.354 nM; in assay [2], more than 9950 nM; in assay [3] it was 0.0219 nM.

B15: Example 269 (peptide)
peptide: Y[Aib]EGT[αMePhe(2-F)]TSD[Nle]SI[αMeL]LD[Orn]IAQ[Aib]EFIK([AEEA-AEEA-γGlu-C14 diacid])[αMeY]LIK([AEEA-AEEA-γGlu-C14 diacid])GGPSSGAPPPS-NH2
modifications: N-terminus assumed
SMILES: CCCC[C@H](NC(=O)[C@H](CC(=O)O)NC(=O)[C@H](CO)NC(=O)[C@@H](NC(=O)[C@](C)(Cc1ccccc1F)NC(=O)[C@@H](NC(=O)CNC(=O)[C@H](CCC(=O)O)NC(=O)C(C)(C)NC(=O)[C@@H](N)Cc1ccc(O)cc1)[C@@H](C)O)[C@@H](C)O)C(=O)N[C@@H](CO)C(=O)N[C@H](C(=O)N[C@@](C)(CC(C)C)C(=O)N[C@@H](CC(C)C)C(=O)N[C@@H](CC(=O)O)C(=O)N[C@@H](CCCN)C(=O)N[C@H](C(=O)N[C@@H](C)C(=O)N[C@@H](CCC(N)=O)C(=O)NC(C)(C)C(=O)N[C@@H](CCC(=O)O)C(=O)N[C@@H](Cc1ccccc1)C(=O)N[C@H](C(=O)N[C@@H](CCCCNC(=O)COCCOCCNC(=O)COCCOCCNC(=O)CC[C@H](NC(=O)CCCCCCCCCCCCC(=O)O)C(=O)O)C(=O)N[C@@](C)(Cc1ccc(O)cc1)C(=O)N[C@@H](CC(C)C)C(=O)N[C@H](C(=O)N[C@@H](CCCCNC(=O)COCCOCCNC(=O)COCCOCCNC(=O)CC[C@H](NC(=O)CCCCCCCCCCCCC(=O)O)C(=O)O)C(=O)NCC(=O)NCC(=O)N1CCC[C@H]1C(=O)N[C@@H](CO)C(=O)N[C@@H](CO)C(=O)NCC(=O)N[C@@H](C)C(=O)N1CCC[C@H]1C(=O)N1CCC[C@H]1C(=O)N1CCC[C@H]1C(=O)N[C@@H](CO)C(N)=O)[C@@H](C)CC)[C@@H](C)CC)[C@@H](C)CC)[C@@H](C)CC
Consider B15, for which the “cAMP EC50” value in assay [1] was 1.72 nM; in assay [2], more than 9950 nM; in assay [3], 0.0335 nM.
